In a protein production outcome set (Wang et al. 2014):

Assay: label from the status in PepcDB records

## MSTAVFLGFIVLSLYLALRSRKGTGSQSAHDFFVASRQFGAFLVFFLAAGEIYSVATMVGFAGGIYAKGPTYGIWFLGYILLAYPLGYFLAPKIWEAGQRFNAITLADLFKGHFDNRAVEFVVALSSILFLLPMAQLQFTGLIAAFRGLGWSFQPLHLVLIAAVLAFTYIAISGVRSSAYVAVLKDVLMVVAIVVTGLAVAGEVGVAKVFHVASEHVSNRMNDEQLRFSMSTILFQSLGFYMMPISVQFIYTAKSADTIRRTQVAMPLYMLMYPFLVLASYYALTRSDTLATANEAFFVAATHLLPSWLLGLVAAAAALSGLLVLTGMCLAIGPIVTRNLLPHLPESRQKAGAKGVIVVYLIVSILMTLMAPNLMLTLINTTYYGVTQFLPGMIVILFSLRVRPSAVVLGILTGQLMAVVLYLEKVDLGGINLGLPCLAANVVVMVVLNLLRTPKGLQATA
  protein production: failed

## MMQDISIFLAFGAGFLSFISPCCLPLYPAFLSYITGMSVSELKEENAMLRKRSMIHTAFFLLGFSIIFIAIGFGTSFIGGIFTDYKDLIRQLGGIFIIVFGLIIVGVFKPKFLMQDRKFTFKNRPSGYFGSVLIGLAFAAGWTPCTGPILVSVIGLAATNPESAMIYMIAYILGFAIPFFVLSFFITKMSWIKRNSMAFMKVGGYIMIVMGVFLYFNWMTKIIVYFSSLFGGFTGF
  protein production: failed

## MAVNACLSPPEMMAVRPGEGVPNSKSTQGKTRLYLTKPSWIVRTQSGAKTCMKSKAKGRCVICHGSGRVDCFNCCGKGRTNCVDVEMLPRGEWPKWCKSCGGSGLSDCSRCLGTGERASFFFLWFDILIVMSSVALPAMSCRSSGEQVKEIRVCTNRTCRRQGSFQILETLTALAPPELRVTHCACLGRCGSGPNLVALPQGLILRHCATPSRAAEILFSLCGDGREASSSSAVTDALTALALTNNALSQIDAGNFSEAEALLTQALELKPYGGLHRIFKHRSVAKLGMLDYSGALEDISQALALAPNYSEPYICQGDVYVAKGQYDLAEKSYLTCLEIDPSLRRSKPFKARIAKLQQKVVELDVT
  protein production: failed

## MHQQGIRMEGMSDLNALNLEPGEVVGGYTLISRLGSGAMGSVWRVRDDGGTTYAMKILRDSLADESVAGSGSASAALHDPDLKPDVTPRERLRREAMALKKVNHPGVCGIVDMELDDTLAFIVTELIEGKNLKDDVAANGRYVGDDLERLARKLIDATKAVHAAGIVHRDIKPTNVMVSAAGPVLVDFGIAMGEGESHVTRTGLVMGTPGFIAPEIIDGAESDEATDWWSVASVLAFAATGAPVFGTKPMMAVLEREASGNANLSGLPAGTLAAFRSALDPDRTKRCTPDQLLNAIALDALNPAVWQGAQAGPFAAGAIAGGANTIAPAAGTAGETEAVPPFGAAGHVDRNNPRTIWRATDEAAQALTDEATTTLPDSAAPAISDEATVQLAGATVPLTEATTPLTSEATTPLTPVTGEPLLAPTTPLAERTAVLPSPQPTAFPPTPPVQLVGGMAQNGWNPAAADVQATVVDPNIRPALQRVIDQTAQFAPTEALVQQPLAPNPADVKRGEYLQRGVFPLLLLALPLAVLAASMPLIALLAAAAMLWLLLTLAYNTEPQLEREGRRGGERKSSDTWIRAATLPWHIVKALLLSLPRMVLLIVIAIAGTAAATMALALPTQTVYWYFTPERGVPIPLLNDVPLSASGLALGGFMAIGWLVTVFGPQAMMARLGAGVLRGLNPRQAQSPMPLAYDGSPAVPSPAAMAPASATRGKRSTMLFTIWIIVTLALCTLPLTGMAIDWTPLV
  protein production: failed

## MERKRYSKRYCKYTEAKISFIDYKDLDMLKHTLSERYKIMPRRLTGNSKKWQERVEVAIKRARHMALIPYIVDRKKVVDSPFKQH
  protein production: failed

## GLGGFTRTRNKGKSNVIDMIQKYIESKGMPIENWDITVGYCTNLEEAEKYRDDVEAQLGVKLLERREDFKTRISIISGCHTGPYALGIACIPKYTTIRL
  protein production: not failed

## MEEASEGGGNDRVRNLQSEVEGVKNIMTQNVERILARGENLEHLRNKTEDLEATSEHFKTTSQKVARKFWWKNVKMIVLICVIVFIIILFIVLFATGAFS
  protein production: failed
